Results on one molecule are retold here after patent US20020077289A1, “Angiostatin and endostatin binding proteins and methods of use” (priority 2000, published 2002).

The subject of one data set is fibroblasts. Briefly: Proliferation of PDGF-BB or 20% fetal calf serum stimulated fibroblasts (thymidine incorporation, MTT). The data set is classed as cell-based. Particulars: stimulated with PDGF-BB or 20% fetal calf serum; compared with pericytes. The source says:
(§1) Endostatin protein results in an inhibition of proliferation of PDGF-BB or 20% fetal calf serum stimulated primary cultures of pericytes and to a lesser extent fibroblasts. […] The results have been confirmed using a MTT proliferation kit.
Background: Incorporation of labelled thymidine or its analogues reports DNA synthesis.

Data set [1] is described as follows: Pharmacokinetics: serum rhEndostatin levels after s.c. administration. It counts as in vivo, C57BL/6J mice. As to conditions: for AUClast: sera 0.17-2 hours. The procedure:
To determine the pharmacokinetics, C57BL/6J mice (3 per time point) were dosed s.c. with 1.5 nmol of rhEndostatin alone or in combination with 375 nmol of either E37 or control peptide. Sera was collected 0.17, 0.5, 1 and 2 hours following s.c. administration. Serum drug levels were determined using an Endostatin EIA kit (Cytlmmune Sciences, College Park, Md.) according to the manufacture's instructions. Pharmacokinetic analyses of the serum concentration versus time data were performed by nonlinear least square minimization using RSTRIP (Version 4.03, MicroMath Scientific Software, Salt Lake City, Ut.).
Groups of mice (3 mice/time point) were injected s.c. with 1.5 nmol of rhEndostatin alone or in combination with a 250-fold molar excess of either E37 or control peptide. Sera were collected at 0.17, 0.5, 1 and 2 hours following s.c. administration, and assessed for serum rhEndostatin levels as previously described (Sim et al.)

The subject of another data set is mammary tumor. As to conditions: i.v. technetium (99mTc) labeled rhEndostatin, 100 μCi/rat; personal communication; cited from earlier work.
In another data set the test system is G-actin. Briefly: Actin polymerization light scatter assay. It counts as biochemical. As to conditions: G-actin/Endostatin nucleation complexes. The source says: As a result of the inventors findings, also included herein are_antiangiogenic actin-binding molecules. Though not wishing to be bound by the following theory, it is believed that since actin polymerization is affected by Endostatin it could possibly mean that Endostatin is binding to the actin component of the microfilaments, in addition to or in association with tropomyosin. […] Accordingly, molecules such as Endostatin that have an effect on actin polymerization will have an effect on microfilaments resulting in anti-angiogenic activity through modification of cell motility, and induction of cell apoptosis. Preferred embodiments of the present invention include compositions comprising proteins and chemicals that bind tropomyosin isoforms, such as hTM3. In certain embodiments, such compositions may be characterized as antiangiogenic actin-binding molecules.

In data set [2] the test system is primary cultures of pericytes. Briefly: Proliferation of PDGF-BB or 20% fetal calf serum stimulated pericytes (thymidine incorporation, MTT). The data set is classed as cell-based.
Source text: as §1
Endostatin protein tends to have a greater effect on cells in the earlier stages of differentiation. While such cells constitute a small fraction of the total number, inhibiting their proliferation may have significant effects on the final total cell number. Endostatin protein's effect on cells early in the differentiation pathway results in a reduction of 70-80% of the final cell number. Endostatin protein also changes the morphology of these cells (data not shown).

The test system of data set [3] is B16-BL6 melanoma cells. Kind of data set: B16-BL6 experimental metastasis assay. It counts as in vivo, C57BL/6J mice. Particulars: dose of 1.3 nmol rhEndostatin.
A further data set has as its system intratumoral blood flow. Particulars: systemic rhEndostatin therapy; cited from earlier work.
Data set [4] relates to B16-BL6 melanoma cells. Briefly: B16-BL6 experimental metastasis assay. The data set is classed as in vivo, C57BL/6J mice. As to the method:
C57BL/6J mice were injected via the tail vein with 5×10^4 B16-BL6 melanoma cells on day 0. On day 3, groups of five mice received daily subcutaneous doses of either buffer control, 1.5 nmol (1.5 mg/kg/day) of rhEndostatin in combination with 0, 15, 75 or 375 nmol of control or E37 peptide, or control or E37 peptide alone for eleven days. All mice were sacrificed on day 14, and the number of pulmonary surface metastases in each animal counted. Error bars indicate standard deviation of the mean.
C57BL/6J mice (n=8) were injected intravenously (i.v.) with 5×10^4 B16-BL6 cells/mouse. Three days later treatment commenced. 100 μl of citrate-phosphate buffer (66 mM Sodium Phosphate, 17 mM Citric acid, 59 mM NaCl pH 6.2) containing 1.5 nmol of rhEndostatin and 100 μl of PBS containing either 0, 15, 75 or 375 nmol of control or E37 peptide were mixed and injected subcutaneously (s.c.) daily for 11 days. All mice were then sacrificed, their lungs removed and the number of surface metastases counted. Results were analyzed for statistical significance using the 2-tailed Student's t-test.
The following experiment was conducted to determine the interaction of E37 peptide and Endostatin protein. Briefly, the B16BL6 experimental metastasis assay, as known to those of skill in the art and further described in International Patent Application number PCT/US99/11418, was performed as follows. 5×10^4 B16-BL6 cells in 200 μl of PBS were injected into C57BL/6J mice via the tail vein. Three days post injection treatment was started. The injection received by eight groups of mice were: 1) citrate phosphate/PBS buffer, 2) ^30 μg Endostatin protein (in 100 μl PBS), 3) 30 μg Endostatin protein (in 200 μl PBS), 4) 30 μg Endostatin protein plus 50 times molar excess of control peptide (in 200 μl PBS), 5) 30 μg Endostatin protein plus 250 times molar excess of control peptide (in 200 μl PBS), 6) 30 μg Endostatin protein plus 10 times molar excess of E37 peptide (in 200 μl PBS), 7) 30 μg Endostatin protein plus 50 times molar excess of E37 peptide (in 200 μl PBS), and 8) 30 μg Endostatin protein plus 250 times molar excess of E37 peptide (in 200 μl PBS). Doses were administered daily for eleven days posterior to the thoracic cavity subcutaneously. All mice were sacrificed, the lungs removed and the number of surface metastases in each animal were counted under a stereo microscope.

In a further data set the test system is wound healing. As to conditions: in vivo; cited from earlier work.

B1: rhEndostatin: recombinant human Endostatin, antiangiogenic fragment of a C-terminal non-collagenous region of a collagen protein, produced in P. pastoris (protein)
chain: HSHRDFQPVLHLVALNSPLSGGMRGIRGADFQCFQQARAVGLAGTFRAFLSSRLQDLYSIVRRADRAAVPIVNLKDELLFPSWEALFSGSEGPLKPGARIFSFDGKDVLRHPTWPQKSVWHGSDPNGRRLTESYCETWRTEAPSATGQASSLLGGRLLGQSAASCHHAYIVLCIENSFMTASK
Take B1: the “thymidine incorporation into fibroblasts” value with fibroblasts is “to a lesser degree”. In addition, the AUClast in data set [1] (1.5 nmol rhEndostatin s.c. + 250x E37 peptide) is 4544 ng·min/mL; in [1] (1.5 nmol rhEndostatin s.c. + 250x control peptide), 5552 ng·min/mL; in [1] (1.5 nmol rhEndostatin s.c. alone), 5370 ng·min/mL. The “AUClast relative to rhEndostatin alone or with 375 nmol control peptide” value in data set [1] (1.5 nmol rhEndostatin s.c. co-administered with 250-fold molar excess of E37 peptide) stood at 85%. Moreover, the “time after injection at which the tumor could be visualized” value in the data set with mammary tumor was 0.5 to 4 h. Besides, the “effect on actin polymerization” value in the data set on G-actin is “shorten the lag phase and facilitate actin polymerization”. Besides, the “differentiation of pericytes to fibroblasts” value in data set [2] was “does not appear to affect”. Besides, in data set [2] (effect on cells early in the pericyte/fibroblast differentiation pathway), the “reduction of the final cell number” value is 70-80%. Further, the “thymidine incorporation into primary cultures of pericytes” value in data set [2] (stimulated with PDGF-BB or 20% fetal calf serum) is listed as “consistent reduction in thymidine incorporation”. Also, the “inhibition of lung metastases inferred from dose titration of rhEndostatin (Sim et al)” value with B16-BL6 melanoma cells [3] amounted to 77%. Further, the “reduction of intratumoral blood flow” value in the data set with intratumoral blood flow is 50%. Moreover, in the data set on B16-BL6 melanoma cells [4] (1.5 nmol rhEndostatin co-administered with 250-fold molar excess of E37 peptide), the “inhibition of lung metastasis” value was found to be 11%. Also, the “inhibition of the formation of lung metastasis” value in the data set with B16-BL6 melanoma cells [4] (30 μg Endostatin protein alone, daily s.c. for eleven days) is “approximately 79%”; in the data set on B16-BL6 melanoma cells [4] (30 μg Endostatin protein plus 10 fold molar excess of E37 peptide) it was “approximately 76%”; with B16-BL6 melanoma cells [4] (30 μg Endostatin protein plus 50 fold molar excess of E37 peptide), “approximately 61%”; in the data set on B16-BL6 melanoma cells [4] (30 μg Endostatin protein plus 50 fold molar excess of negative control peptide) it was “approximately 79%”; in the data set on B16-BL6 melanoma cells [4] (30 μg Endostatin protein plus 250 fold molar excess of E37 peptide) it was “approximately 21%”; in the data set with B16-BL6 melanoma cells [4] (30 μg Endostatin protein plus 250 fold molar excess of negative control peptide), “approximately 73%”. For the same molecule, in the data set on B16-BL6 melanoma cells [4] (daily 1.5 nmol rhEndostatin (1.5 mg/kg/day)), the “inhibition of growth of experimental B16-BL6 lung metastases compared to buffer treated control mice” value is given as “greater than 70%”. Also, in the data set on wound healing, the “effect on wound healing” value was “remained unaffected”.
